Laboratory results: article doi:10.1101/840439 (bioRxiv, 2019)

Target: the molecule itself
Assay: crystal structure

B1: BchL (L-protein of dark-operative protochlorophyllide oxidoreductase, DPOR), wild type (enzyme, Rhodobacter sphaeroides, UniProt Q9RFD6 1-297, looked up)
chain: MSPKDLTIPTGADGEGSVQVHLDEADKITGAKVFAVYGKGGIGKSTTSSNLSAAFSILGKRVLQIGCDPKHDSTFTLTGSLVPTVIDVLKDVDFHPEELRPEDFVFEGFNGVMCVEAGGPPAGTGCGGYVVGQTVKLLKQHHLLDDTDVVIFDVLGDVVCGGFAAPLQHADQAVVVTANDFDSIYAMNRIIAAVQAKSKNYKVRLAGCVANRSRATDEVDRFCKETNFRRLAHMPDLDAIRRSRLKKKTLFEMDEDQDVLAARAEYIRLAESLWRGLDPIDPHSLPDRDIFELLGFD
- stoichiometry N: 2
